The values below are quoted from earlier work in article PMC9914670.

The target in data set [1] is ATP5A1 (F1 ATPase alpha subunit) (Homo sapiens) (UniProt P25705). Briefly: ELISA. (ELISA stands for enzyme-linked immunosorbent assay.)
In data set [2] the target is ATP5A1/5B complex (Homo sapiens) (UniProt P25705). Briefly: ELISA.
The target of data set [3] is ATP5B (F1 ATPase beta subunit) (Homo sapiens) (UniProt P06576). Briefly: ELISA.
Data set [4] addresses TLR4/MD2 complex (Homo sapiens) (UniProt O00206). Briefly: QCM.
Data set [5] has as its target ATP5A1/5B complex (Homo sapiens) (UniProt P25705). Briefly: QCM.

Prothymosin alpha, sequence (P06302 2-112): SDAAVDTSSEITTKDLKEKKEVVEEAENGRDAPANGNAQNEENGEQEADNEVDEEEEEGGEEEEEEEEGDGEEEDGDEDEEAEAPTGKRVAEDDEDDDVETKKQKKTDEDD
ATP5A1/5B complex (Homo sapiens), sequence (P25705 44-553, chain 1 of 2): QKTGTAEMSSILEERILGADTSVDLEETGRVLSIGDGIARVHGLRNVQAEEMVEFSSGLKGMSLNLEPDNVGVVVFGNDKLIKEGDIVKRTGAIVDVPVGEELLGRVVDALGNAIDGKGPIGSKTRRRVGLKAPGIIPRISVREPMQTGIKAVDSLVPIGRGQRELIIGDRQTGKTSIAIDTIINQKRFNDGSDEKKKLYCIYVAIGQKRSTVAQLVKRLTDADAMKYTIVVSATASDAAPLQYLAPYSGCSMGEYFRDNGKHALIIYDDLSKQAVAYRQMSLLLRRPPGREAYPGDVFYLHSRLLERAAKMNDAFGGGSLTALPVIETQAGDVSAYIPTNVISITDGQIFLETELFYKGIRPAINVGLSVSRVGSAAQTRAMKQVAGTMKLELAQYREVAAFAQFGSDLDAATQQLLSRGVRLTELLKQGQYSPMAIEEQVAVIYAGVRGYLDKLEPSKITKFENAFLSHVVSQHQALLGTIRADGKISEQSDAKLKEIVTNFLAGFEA
ATP5A1/5B complex (Homo sapiens), sequence (P06576 48-529, chain 2 of 2, further chain): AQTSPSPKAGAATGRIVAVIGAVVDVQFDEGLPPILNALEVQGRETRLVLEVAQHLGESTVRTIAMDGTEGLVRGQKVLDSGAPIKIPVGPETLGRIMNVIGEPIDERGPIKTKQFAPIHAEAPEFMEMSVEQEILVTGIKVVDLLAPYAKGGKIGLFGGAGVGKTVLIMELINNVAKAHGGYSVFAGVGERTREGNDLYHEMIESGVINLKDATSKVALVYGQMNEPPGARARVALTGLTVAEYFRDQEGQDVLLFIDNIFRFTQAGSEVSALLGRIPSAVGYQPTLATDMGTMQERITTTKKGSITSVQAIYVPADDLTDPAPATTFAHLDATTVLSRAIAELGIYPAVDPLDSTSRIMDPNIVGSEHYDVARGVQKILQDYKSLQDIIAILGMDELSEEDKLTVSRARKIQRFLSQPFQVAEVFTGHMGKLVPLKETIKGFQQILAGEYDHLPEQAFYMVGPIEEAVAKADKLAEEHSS
TLR4/MD2 complex (Homo sapiens), sequence (O00206 24-839, chain 1 of 2): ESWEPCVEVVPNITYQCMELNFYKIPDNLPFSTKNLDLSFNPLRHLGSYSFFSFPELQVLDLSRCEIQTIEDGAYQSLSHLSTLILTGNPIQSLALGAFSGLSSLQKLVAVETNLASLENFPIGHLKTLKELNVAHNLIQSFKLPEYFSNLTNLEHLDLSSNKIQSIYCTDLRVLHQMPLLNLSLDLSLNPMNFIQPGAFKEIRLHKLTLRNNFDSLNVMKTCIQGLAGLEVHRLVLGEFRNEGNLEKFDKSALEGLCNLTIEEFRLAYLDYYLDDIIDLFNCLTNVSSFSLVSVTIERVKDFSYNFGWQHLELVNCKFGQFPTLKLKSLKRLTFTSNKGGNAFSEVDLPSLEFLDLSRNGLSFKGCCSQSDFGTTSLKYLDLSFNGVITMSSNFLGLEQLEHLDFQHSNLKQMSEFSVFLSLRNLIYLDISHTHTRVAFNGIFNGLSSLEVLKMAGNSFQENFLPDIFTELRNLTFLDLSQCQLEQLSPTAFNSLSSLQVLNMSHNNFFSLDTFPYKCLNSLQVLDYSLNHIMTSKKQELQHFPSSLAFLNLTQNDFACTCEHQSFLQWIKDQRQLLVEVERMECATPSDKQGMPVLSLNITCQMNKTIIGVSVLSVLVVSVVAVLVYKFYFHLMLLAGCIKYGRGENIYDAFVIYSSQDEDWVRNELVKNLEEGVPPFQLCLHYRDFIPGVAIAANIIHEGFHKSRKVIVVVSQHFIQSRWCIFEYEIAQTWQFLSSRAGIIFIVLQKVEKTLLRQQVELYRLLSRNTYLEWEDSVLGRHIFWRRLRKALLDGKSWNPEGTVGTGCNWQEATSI
TLR4/MD2 complex (Homo sapiens), sequence (Q9Y6Y9 19-160, chain 2 of 2, further chain): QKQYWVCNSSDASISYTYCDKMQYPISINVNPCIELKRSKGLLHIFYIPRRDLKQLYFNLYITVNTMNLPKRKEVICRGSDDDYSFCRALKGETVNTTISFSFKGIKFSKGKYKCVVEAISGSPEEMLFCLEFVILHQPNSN
ATP5A1 (F1 ATPase alpha subunit) (Homo sapiens), sequence (P25705 44-553): as the sequence (P25705 44-553, chain 1 of 2) above
ATP5B (F1 ATPase beta subunit) (Homo sapiens), sequence (P06576 48-529): as the sequence (P06576 48-529, chain 2 of 2, further chain) above

As to Prothymosin alpha (from UniProt P06302), the Kd (as a rule, the equilibrium constant for the complex coming apart) is 68 nM in data set [1]; 55.8 nM in data set [2]; 241 nM in data set [3]; 16100 nM in data set [4]; 28.1 nM in data set [5].
